According to patent US20020086983A1 (THOMAS JEFFERSON UNIVERSITY, published 2002):

T1: T7-FLAME-2 (Homo sapiens (Human), UniProt O75618 1-318)
T1 sequence: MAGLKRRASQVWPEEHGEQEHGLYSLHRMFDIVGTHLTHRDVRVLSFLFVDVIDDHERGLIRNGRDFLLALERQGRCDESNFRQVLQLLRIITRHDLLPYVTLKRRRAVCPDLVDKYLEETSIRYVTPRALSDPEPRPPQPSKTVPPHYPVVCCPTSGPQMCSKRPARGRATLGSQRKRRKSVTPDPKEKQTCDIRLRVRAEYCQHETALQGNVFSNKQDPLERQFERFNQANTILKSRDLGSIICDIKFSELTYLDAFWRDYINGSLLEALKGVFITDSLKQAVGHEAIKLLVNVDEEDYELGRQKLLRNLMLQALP


How the values were obtained:
[1] = molecular target: LexA-FLAME-1-FDH (residues 1-160) (human, UniProt O15519 1-160); assay: yeast two-hybrid assay
T7-FLAME-2 = molecular target: T1, T7-FLAME-2; assay: co-immunoprecipitation from transfected 293T cells with Flag-tagged Fas, with or without T7-FADD
Method: After 34-36 h, extracts were prepared and immunoprecipitated with a monoclonal antibody to the Flag-epitope. […] Cells were lysed in a lysis buffer (50 mM Tris, pH 7.6, 150 mM NaCl, 0.1 NP-40) and incubated with anti Flag-M5 monoclonal antibody (IBI Kodak). The immune complexes were precipitated with protein-A/G-Sepharose, washed and then eluted by boiling in SDS-sample buffer. The eluted proteins were resolved by SDS-PAGE and detected by Western analysis with a HRP-conjugated T7-antibody (Novagen). The samples were analyzed by SDS-PAGE and Western blotted with a horseradish peroxidase (HRP)-conjugated T7-antibody. All extracts were immunoblotted with anti-Flag and anti-T7 to verify expression of the encoded proteins.

binding result [1]	binding result (T7-FLAME-2)	Binder
binds		B42-FADD-DED (murine FADD-DED, residues 1-78) (other, UniProt Q61160 1-78, looked up, not shown: large carriers, range 1-78) MDPFLVLLHSLSGSLSGNDLMELKFLCRERVSKRKLERVQSGLDLFTVLLEQNDLERGHTGLLRELLASLRRHDLLQR
	no binding	Flag-tagged Fas (receptor, UniProt P25445 26-335, looked up, not shown: small tags and cut ends, Expressed in 293T cells and immunoprecipitated with the anti-Flag antibody) QVTDINSKGLELRKTVTTVETQNLEGLHHDGQFCHKPCPPGERKARDCTVNGDEPDCVPCQEGKEYTDKAHFSSKCRRCRLCDEGHGLEVEINCTRTQNTKCRCKPNFFCNSTVCEHCDPCTKCEHGIIKECTLTSNTKCKEEGSRSNLGWLCLLLLPIPLIVWVKRKEVQKTCRKHRKENQGSHESPTLNPETVAINLSDVDLSKYITTIAGVMTLSQVKGFVRKNGVNEAKIDEIKNDNVQDTAEQKVQLLRNWHQLHGKKEAYDTLIKDLKKANLCTLAEKIQTIILKDITSDSENSNFRNEIQSLV
